These results are taken from patent publication US20230365681A1 (CELGENE, published 2023).

Experiment [1] deals with recombinant human fragment crystallizable gamma receptor (FcγR) family members tested. The experiment can be described thus: recombinant human FcγR proteins; method not stated.
Experiment [2] deals with T1, cynomolgus CD20 on B cells (cynomolgus monkey, UniProt M4ZHZ6 1-297).
T1 construct: whole, on cells; also called cynomolgus macaque B cells
T1 sequence: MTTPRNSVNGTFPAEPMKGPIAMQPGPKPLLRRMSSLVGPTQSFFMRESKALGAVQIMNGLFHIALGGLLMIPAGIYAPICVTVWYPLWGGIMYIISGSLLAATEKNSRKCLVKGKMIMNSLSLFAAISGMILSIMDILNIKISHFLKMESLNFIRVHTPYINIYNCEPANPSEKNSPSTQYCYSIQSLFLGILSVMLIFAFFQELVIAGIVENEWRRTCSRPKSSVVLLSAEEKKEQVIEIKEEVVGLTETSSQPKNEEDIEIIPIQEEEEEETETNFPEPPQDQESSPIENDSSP
The experiment can be described thus: binding to cynomolgus macaque B cells.

In experiment [3] the target is T2, cynomolgus CD47 extracellular domain (cynomolgus monkey, UniProt A0A2K5X523 19-141).
T2 construct: also called cynomolgus CD47 ECD
T2 sequence (A0A2K5X523 entry or part of it limits assumed): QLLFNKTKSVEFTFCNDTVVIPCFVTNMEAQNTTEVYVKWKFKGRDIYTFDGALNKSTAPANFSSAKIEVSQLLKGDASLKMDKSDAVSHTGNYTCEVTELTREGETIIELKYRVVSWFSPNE
The experiment can be described thus: SPR, cynomolgus CD47. In general terms: SPR reads the build-up and loss of mass on a sensor chip optically.

In experiment [4] the target is FcγR3A (V176) recombinant protein (human, UniProt P08637 17-208). The experiment can be described thus: recombinant protein, compared with control anti-RSV IgG1 antibody (p value 0.0049).
Chain of FcγR3A (V176) recombinant protein (P08637 17-208 F176V): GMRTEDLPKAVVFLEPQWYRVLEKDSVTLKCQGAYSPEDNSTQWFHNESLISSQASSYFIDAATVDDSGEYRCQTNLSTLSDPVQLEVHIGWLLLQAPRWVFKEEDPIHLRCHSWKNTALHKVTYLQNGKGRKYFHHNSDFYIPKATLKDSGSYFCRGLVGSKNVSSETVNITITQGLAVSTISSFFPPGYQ
In experiment [5] the target is T3, human CD47 extracellular domain (human, UniProt Q08722 19-139).
T3 construct: extracellular domain; also called human CD47 ECD; Hu CD47
T3 sequence (Q08722 19-139 limits assumed): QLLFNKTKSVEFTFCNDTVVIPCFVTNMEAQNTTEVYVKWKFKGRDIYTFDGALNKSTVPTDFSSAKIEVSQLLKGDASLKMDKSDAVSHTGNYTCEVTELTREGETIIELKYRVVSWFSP
Briefly: SPR, human CD47 ECD; Example 4 SPR; earlier determination than the 2.32 µM of paragraph 95.

Experiment [6] has as its target T4, FcγR2B on engineered HEK293 cells (UniProt P31994 43-310).
T4 construct: whole, on cells; also called FcγR2B cell line
T4 sequence (looked up): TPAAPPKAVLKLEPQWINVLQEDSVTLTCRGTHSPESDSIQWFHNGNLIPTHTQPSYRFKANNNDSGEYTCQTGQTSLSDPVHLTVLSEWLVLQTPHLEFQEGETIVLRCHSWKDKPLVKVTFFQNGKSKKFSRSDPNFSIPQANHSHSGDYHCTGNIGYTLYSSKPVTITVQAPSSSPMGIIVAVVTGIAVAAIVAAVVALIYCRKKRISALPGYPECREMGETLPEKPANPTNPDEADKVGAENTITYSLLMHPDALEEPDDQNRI
The experiment can be described thus: TR-FRET on FcγR-engineered HEK293 cells. On the technique in general: In TR-FRET formats the signal depends on donor and acceptor labels being close together.

The target of experiment [7] is T5, FcγR1 on engineered HEK293 cells (UniProt P12314 16-374).
T5 construct: whole, on cells; also called FcγR1 cell line
T5 sequence (P12314 16-374, change not shown): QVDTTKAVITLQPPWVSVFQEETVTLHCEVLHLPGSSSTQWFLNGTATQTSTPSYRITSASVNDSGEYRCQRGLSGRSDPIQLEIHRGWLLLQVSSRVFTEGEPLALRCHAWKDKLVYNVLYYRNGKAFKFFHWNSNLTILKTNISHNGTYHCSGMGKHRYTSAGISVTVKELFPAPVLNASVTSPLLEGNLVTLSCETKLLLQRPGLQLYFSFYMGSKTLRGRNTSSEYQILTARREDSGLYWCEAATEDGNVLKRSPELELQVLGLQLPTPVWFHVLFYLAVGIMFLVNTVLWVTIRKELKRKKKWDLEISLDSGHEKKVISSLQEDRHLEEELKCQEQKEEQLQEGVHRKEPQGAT
The experiment can be described thus: TR-FRET on FcγR-engineered HEK293 cells.

Experiment [8] deals with T3, human CD47 extracellular domain. The experiment can be described thus: SPR, extracellular domain of human CD47.
Experiment [9] concerns the target FcγR3A (F176) recombinant protein (human, UniProt P08637 17-208). The experiment can be described thus: recombinant protein, compared with control anti-RSV IgG1 antibody (p value 0.0045).
Experiment [10] deals with T3, human CD47 extracellular domain. Briefly: SPR, human CD47 ECD.
Experiment [11] deals with T6, mouse CD47 (mouse, UniProt Q61735 19-140, limits assumed).
T6 sequence (looked up): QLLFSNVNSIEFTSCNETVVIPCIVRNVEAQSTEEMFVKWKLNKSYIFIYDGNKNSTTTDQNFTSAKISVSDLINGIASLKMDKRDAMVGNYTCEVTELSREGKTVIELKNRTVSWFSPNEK
Briefly: SPR.

Experiment [12] deals with T7, FcγR2A (H131) recombinant protein (human, UniProt P12318 34-217).
T7 sequence (looked up): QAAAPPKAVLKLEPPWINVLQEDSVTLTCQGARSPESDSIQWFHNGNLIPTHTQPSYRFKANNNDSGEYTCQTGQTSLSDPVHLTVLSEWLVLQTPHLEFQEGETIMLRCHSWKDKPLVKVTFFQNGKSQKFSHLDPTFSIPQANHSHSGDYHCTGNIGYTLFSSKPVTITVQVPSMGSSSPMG
The experiment can be described thus: recombinant protein, compared with control anti-RSV IgG1 antibody (p value 0.0038).

The target in experiment [13] is T8, FcγR2A (R131) recombinant protein (human, UniProt P12318 34-217).
T8 sequence (looked up): T7 sequence (looked up) with H134R
Briefly: recombinant protein, compared with control anti-RSV IgG1 antibody (p value 0.00019).

Experiment [14] concerns the target T2, cynomolgus CD47 extracellular domain. The experiment can be described thus: SPR, cynomolgus CD47 ECD.
Experiment [15] has as its target T9, human CD47 on cells (human, UniProt Q08722 19-323).
T9 construct: whole, on cells; also called cell surface CD47; CD47 on Raji, OCI-Ly3, Fadu cells, human RBCs, platelets and blood cells
The experiment can be described thus: blocking of human SIRPα binding to Raji cells, SIRPα at saturating concentration, secondary antibody detection; competitor SIRPα (repeated in paragraph 145 as average EC50); Raji cells (CD20+/CD47+); blocking of SIRPα binding.

Experiment [16] deals with T9, human CD47 on cells. The experiment can be described thus: blocking of human SIRPα binding to OCI-Ly3 cells, SIRPα at saturating concentration, secondary antibody detection; competitor SIRPα (repeated in paragraph 145 as average EC50); OCI-Ly3 cells (CD20+/CD47+); blocking of SIRPα binding.
Experiment [17] deals with T9, human CD47 on cells. Briefly: cell-based or functional assay.
Experiment [18] addresses T10, human CD20 (human, UniProt P11836 1-297, limits assumed).
T10 sequence (looked up): T1 sequence with P25S, L31F, A51T, V157A, R217K, S226N, V227I, V239T
Briefly: sandwich SPR.

The target of experiment [19] is T11, human CD20 on cells (human, UniProt P11836 1-297).
T11 construct: whole, on cells; also called CD20 on Raji cells and human B cells
T11 sequence (looked up): T1 sequence with P25S, L31F, A51T, V157A, R217K, S226N, V227I, V239T
Briefly: binding to Raji cells (CD20+/CD47+), y axis MFI (the legend paragraph 44 says SPR).

Residue numbers refer to the chain shown, from its start.

T9 sequence (Q08722 19-323): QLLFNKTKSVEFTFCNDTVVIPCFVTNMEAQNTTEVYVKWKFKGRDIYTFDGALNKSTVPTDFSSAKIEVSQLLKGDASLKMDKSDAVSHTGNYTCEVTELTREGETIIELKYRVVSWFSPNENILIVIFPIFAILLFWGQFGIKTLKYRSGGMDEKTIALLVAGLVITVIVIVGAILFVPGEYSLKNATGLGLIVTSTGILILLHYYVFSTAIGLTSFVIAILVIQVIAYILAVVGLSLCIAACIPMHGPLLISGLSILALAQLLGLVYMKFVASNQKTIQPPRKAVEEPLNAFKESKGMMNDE
Chain of FcγR3A (F176) recombinant protein (P08637 17-208): as the sequence (P08637 17-208 F176V) above, with V160F counted along it

B1: TPP-1360 (bispecific antibody, human IgG1, kappa)
light 1: NIQMTQSPSSLSASVGDRVTITCRASQDIHRYLSWFQQKPGKVPKHLIYRESRFVDGVPSRFSGSGSGTEFTLTISSLQPEDFATYYCLQYDEFPYTFGGGTKVEIKRTVAAPSVFIFPPSDEELKSGTASVVCWLNNFYPREAKVQWKVDNALQSGNSEESVTEQDSKDSTYSLSSTLELSKADYEKHKVYACEVTHQGLSSPVTKSFNRGEC
heavy 1: QMQLVQSGAEVKKPGSSVKVSCKASGFNIKDYYLHWVRQAPGKGLEWMGWIDPDQGDTYYAQKFQGRVTITRDRSTSTAYMELRSLRAEDTAVYYCNAAYGESSYPMDYWGQGTLVTVSSASTKGPSVFPLAPSSKSTSGGTAALGCLVKDYFPEPVTVSWNSGALTSGVHTFPAVLKSSGLYSLSSVVTVPSSSLGTQTYICNVNHKPSNTKVDKKVEPKSCDKTHTCPPCPAPELLGGPSVFLFPPKPKDTLMISRTPEVTCVVVDVSHEDPEVKFNWYVDGVEVHNAKTKPREEQYNSTYRVVSVLTVLHQDWLNGKEYKCKVSNKALPAPIEKTISKAKGQPREPQVYVLPPSREEMTKNQVSLLCLVKGFYPSDIAVEWESNGQPENNYLTWPPVLDSDGSFFLYSKLTVDKSRWQQGNVFSCSVMHEALHNHYTQKSLSLSPGK
light 2: QIVLSQSPAILSASPGEKVTMTCRASSSVSYIHWFQQKPGSSPKPWIYATSNLASGVPVRFSGSGSGTSYSLTISRVEAEDAATYYCQQWTSNPPTFGGGTKLEIKRTVAAPSVAIFPPSDERLKSGTASVVCVLNNFYPREAKVQWKVDNALQSGNSQESVTEQDSKDSTYSLSSRLTLSKADYEKHKVYACEVTHQGLSSPVTKSFNRGEC
heavy 2: QVQLQQPGAELVKPGASVKMSCKASGYTFTSYNMHWVKQTPGRGLEWIGAIYPGNGDTSYNQKFKGKATLTADKSSSTAYMQLSSLTSEDSAVYYCARSTYYGGDWYFNVWGAGTTVTVSAASTKGPSVFPLAPSSKSTSGGTAWLGCEVTDYFPEPVTVSWNSGALTSGVHTFPAVLESSGLYSLSSVVTVPSSSLGTQTYICNVNHKPSNTKVDKKVEPKSCDKTHTCPPCPAPELLGGPSVFLFPPKPKDTLMISRTPEVTCVVVDVSHEDPEVKFNWYVDGVEVHNAKTKPREEQYNSTYRVVSVLTVLHQDWLNGKEYKCKVSNKALPAPIEKTISKAKGQPREPQVYVYPPSREEMTKNQVSLTCLVKGFYPSDIAVEWESNGQPENNYKTTPPVLDSDGSFALVSKLTVDKSRWQQGNVFSCSVMHEALHNHYTQKSLSLSPGK
notes: also called CD47xCD20 bispecific; anti-CD47/anti-CD20 IgG1 1+1 heterodimer bispecific antibody
As usually defined, the Kd is the free concentration of one partner at which half of the binding sites on the other are occupied at equilibrium, for simple one-to-one binding. The EC50 is the concentration needed to bring the measured effect to its halfway point. B1: the Kd in experiment [1] was 0.04 to 1620 nM; in experiment [3], 23000 nM; in experiment [5], 1700 nM; in experiment [8] it was 2320 nM; in experiment [14] it was 4510 nM. The binding result in experiment [2] was “binds”; in [4] it was “binds”; in experiment [6] it was “binds”; in experiment [7], “binds”; in experiment [9] it was “binds”; in experiment [11], “no binding”. Also, the binding result in experiment [12], in experiment [13], in [18] and in experiment [19] was “binds” each time. The “fold decrease in affinity relative to the parental anti-CD47 binder” value in [10] is roughly 350 fold. Besides, the EC50 in experiment [15] turned out to be 1.64 nM; in [16] it was 1.3 nM. Moreover, in experiment [17], the “EC50 of macrophage phagocytosis of OCI-Ly3 cells, OCI-Ly3 Mφ EC50 (µg/mL) REPEAT” value is 0.27 µg/mL.
